Here are results for two substances from PMC3931819.

For experiment [1], the target named is 6X(His)-tagged P-domain of the VP1 capsid protein of norovirus Norwalk strain (GI.1 genotype), with the CNGRC cysteine-rich domain (Norwalk virus (GI.1 genotype)). Kind of experiment: cross-linking; 5 ug protein in HEPES 20 mM pH 7, NaCl 100 mM, MgCl2 10 mM with 0%, 0.5% or 1% glutaraldehyde, 5 min at 37°C; samples with or without boiling resolved on 10% SDS-PAGE.

Experiment [2] concerns the target 6X(His)-tagged P-domain of the VP1 capsid protein of norovirus VA387 (GII.4 genotype), with the cysteine-rich peptide … (norovirus VA387 (GII.4 genotype)). Described as above.

The stoichiometry N is the number of molecules, sites or subunits per partner or assembly. For the substance “6X(His)-tagged P-domain of the VP1 capsid protein of norovirus Norwalk strain (GI.1 genotype), with the CNGRC cysteine-rich domain (domain or fragment)”, in experiment [1], the stoichiometry N is above 2. In turn, “6X(His)-tagged P-domain of the VP1 capsid protein of norovirus VA387 (GII.4 genotype), with the cysteine-rich peptide … (domain or fragment)” had a stoichiometry N in experiment [2] above 2.
